Key:
[1] = target: T1, P4SC2; test: two-hybrid library CCNG1;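 note: natural log of median RNA to DNA barcode read ratio; higher means stronger binding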
T1 chain: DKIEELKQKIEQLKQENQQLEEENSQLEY

[2] = target: T1, P4SC2; test: two-hybrid library CCmax; conditions: mean of both orientations;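 note: natural log of median RNA to DNA barcode read ratio; higher means stronger binding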
[3] = target: T2, 4H1257-bA; test: two-hybrid library CCNG1;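 note: natural log of median RNA to DNA barcode read ratio; higher means stronger binding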
T2 chain: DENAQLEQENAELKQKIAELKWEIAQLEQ

[4] = target: T3, 4H1446-bA; test: two-hybrid library CCNG1;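 note: natural log of median RNA to DNA barcode read ratio; higher means stronger binding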
T3 chain: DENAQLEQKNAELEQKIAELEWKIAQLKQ

[5] = target: T4, 4H1828-bA; test: two-hybrid library CCNG1;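 note: natural log of median RNA to DNA barcode read ratio; higher means stronger binding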
T4 chain: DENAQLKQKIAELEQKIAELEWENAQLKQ

[6] = target: T5, 4H1845-bA; test: two-hybrid library CCNG1;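 note: natural log of median RNA to DNA barcode read ratio; higher means stronger binding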
T5 chain: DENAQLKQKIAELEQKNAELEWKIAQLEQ

[7] = target: T6, 4H2442-bA; test: two-hybrid library CCNG1
T6 chain: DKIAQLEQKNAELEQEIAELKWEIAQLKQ

[8] = target: T7, 4H2576-bA; test: two-hybrid library CCNG1
T7 chain: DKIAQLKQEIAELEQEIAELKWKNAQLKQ

[9] = target: T8, 4H2618-bA; test: two-hybrid library CCNG1
T8 chain: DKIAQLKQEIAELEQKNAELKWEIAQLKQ

[10] = target: T9, 4H2667-bA; test: two-hybrid library CCNG1
T9 chain: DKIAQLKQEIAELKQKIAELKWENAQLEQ

[11] = target: T10, 4H2729-bA; test: two-hybrid library CCNG1
T10 chain: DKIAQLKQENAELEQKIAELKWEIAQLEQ

[12] = target: T11, 4H3112-bA; test: two-hybrid library CCNG1
T11 chain: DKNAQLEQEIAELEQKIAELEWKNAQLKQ

[13] = target: T12, 4H3185-bA; test: two-hybrid library CCNG1
T12 chain: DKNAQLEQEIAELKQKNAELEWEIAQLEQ

[14] = target: T13, 4H331-bA; test: two-hybrid library CCNG1
T13 chain: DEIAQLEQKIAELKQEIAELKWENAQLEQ

[15] = target: T14, 4H3354-bA; test: two-hybrid library CCNG1
T14 chain: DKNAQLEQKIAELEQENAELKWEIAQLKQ

[16] = target: T15, 4H338-bA; test: two-hybrid library CCNG1
T15 chain: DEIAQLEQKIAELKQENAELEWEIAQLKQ

[17] = target: T16, 4H3427-bA; test: two-hybrid library CCNG1
T16 chain: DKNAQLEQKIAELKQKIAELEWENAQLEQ

[18] = target: T17, 4H3782-bA; test: two-hybrid library CCNG1
T17 chain: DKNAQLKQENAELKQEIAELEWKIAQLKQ

[19] = target: T18, 4H3855-bA; test: two-hybrid library CCNG1
T18 chain: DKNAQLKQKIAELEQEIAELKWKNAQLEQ

[20] = target: T19, 4H4001-bA; test: two-hybrid library CCNG1
T19 chain: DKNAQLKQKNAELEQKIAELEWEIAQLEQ

[21] = target: T20, 4H454-bA; test: two-hybrid library CCNG1
T20 chain: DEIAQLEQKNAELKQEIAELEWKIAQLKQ

[22] = target: T21, 4H568-bA; test: two-hybrid library CCNG1
T21 chain: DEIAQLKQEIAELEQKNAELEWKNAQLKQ

[23] = target: T22, 4H607-bA; test: two-hybrid library CCNG1
T22 chain: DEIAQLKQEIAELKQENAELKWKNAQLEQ

[24] = target: T23, 4H687-bA; test: two-hybrid library CCNG1
T23 chain: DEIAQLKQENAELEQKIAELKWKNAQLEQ

[25] = target: T24, 4H717-bA; test: two-hybrid library CCNG1
T24 chain: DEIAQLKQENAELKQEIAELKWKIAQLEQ

[26] = target: T25, 4H72-bA; test: two-hybrid library CCNG1
T25 chain: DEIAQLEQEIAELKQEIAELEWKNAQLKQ

[27] = target: T26, 4H754-bA; test: two-hybrid library CCNG1
T26 chain: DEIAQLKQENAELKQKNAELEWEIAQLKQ

[28] = target: T27, 4H797-bA; test: two-hybrid library CCNG1
T27 chain: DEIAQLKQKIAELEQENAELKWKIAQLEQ

[29] = target: T28, 4H883-bA; test: two-hybrid library CCNG1
T28 chain: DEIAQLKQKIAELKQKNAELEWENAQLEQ

[30] = target: T29, 4H908-bA; test: two-hybrid library CCNG1
T29 chain: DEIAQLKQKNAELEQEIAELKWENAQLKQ

[31] = target: T30, 4H918-bA; test: two-hybrid library CCNG1
T30 chain: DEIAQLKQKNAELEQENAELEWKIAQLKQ

[32] = target: T31, 4H953-bA; test: two-hybrid library CCNG1
T31 chain: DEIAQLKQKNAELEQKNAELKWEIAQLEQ

[33] = target: T32, 4H953-bN; test: two-hybrid library CCNG1
T32 chain: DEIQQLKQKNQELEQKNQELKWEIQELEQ

[34] = target: T33, 4H967-bA; test: two-hybrid library CCNG1
T33 chain: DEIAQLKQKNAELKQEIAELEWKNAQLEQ

[35] = target: T34, O2-bA; test: two-hybrid library CCNG1
T34 chain: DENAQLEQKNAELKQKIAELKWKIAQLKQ

[36] = target: T35, Core_IIIN-es_KKKK; test: two-hybrid library CCmax; conditions: mean of both orientations
T35 chain: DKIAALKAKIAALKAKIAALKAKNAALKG

[37] = target: T36, 4H1017-AA; test: two-hybrid library CCmax
T36 chain: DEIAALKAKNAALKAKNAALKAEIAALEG

[38] = target: T37, 4H1082-AA; test: two-hybrid library CCmax
T37 chain: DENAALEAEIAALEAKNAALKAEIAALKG

[39] = target: T38, 4H1103-AA; test: two-hybrid library CCmax; conditions: mean of both orientations
T38 chain: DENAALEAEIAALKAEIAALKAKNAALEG

[40] = target: T39, 4H1198-AA; test: two-hybrid library CCmax; conditions: mean of both orientations
T39 chain: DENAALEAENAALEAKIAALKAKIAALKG

[41] = target: T40, 4H1350-AA; test: two-hybrid library CCmax; conditions: mean of both orientations
T40 chain: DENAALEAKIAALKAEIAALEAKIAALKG

[42] = target: T41, 4H1405-AA; test: two-hybrid library CCmax; conditions: mean of both orientations
T41 chain: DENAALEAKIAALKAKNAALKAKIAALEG

[43] = target: T42, 4H2211-AA; test: two-hybrid library CCmax; conditions: mean of both orientations
T42 chain: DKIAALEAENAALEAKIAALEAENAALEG

[44] = target: T43, 4H2238-AA; test: two-hybrid library CCmax; conditions: mean of both orientations
T43 chain: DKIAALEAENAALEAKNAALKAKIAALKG

[45] = target: T44, 4H2513-AA; test: two-hybrid library CCmax; conditions: mean of both orientations
T44 chain: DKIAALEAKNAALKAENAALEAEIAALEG

[46] = target: T45, 4H2536-AA; test: two-hybrid library CCmax; conditions: mean of both orientations
T45 chain: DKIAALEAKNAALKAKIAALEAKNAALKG

[47] = target: T46, 4H2608-AA; test: two-hybrid library CCmax; conditions: mean of both orientations
T46 chain: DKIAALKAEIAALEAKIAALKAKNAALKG

[48] = target: T47, 4H2614-AA; test: two-hybrid library CCmax; conditions: mean of both orientations
T47 chain: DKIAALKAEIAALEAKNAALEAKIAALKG

[49] = target: T48, 4H2726-AA; test: two-hybrid library CCmax; conditions: mean of both orientations
T48 chain: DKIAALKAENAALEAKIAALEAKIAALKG

[50] = target: T49, 4H2935-AA; test: two-hybrid library CCmax; conditions: mean of both orientations
T49 chain: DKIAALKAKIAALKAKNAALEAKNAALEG

[51] = target: T50, 4H327-AA; test: two-hybrid library CCmax; conditions: mean of both orientations
T50 chain: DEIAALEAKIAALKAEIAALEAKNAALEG

[52] = target: T51, 4H3605-AA; test: two-hybrid library CCmax; conditions: mean of both orientations
T51 chain: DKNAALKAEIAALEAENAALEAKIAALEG

[53] = target: T52, 4H3625-AA; test: two-hybrid library CCmax; conditions: mean of both orientations
T52 chain: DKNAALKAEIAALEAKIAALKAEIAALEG

[54] = target: T53, 4H3664-AA; test: two-hybrid library CCmax; conditions: mean of both orientations
T53 chain: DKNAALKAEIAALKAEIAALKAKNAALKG

[55] = target: T54, 4H369-AA; test: two-hybrid library CCmax; conditions: mean of both orientations
T54 chain: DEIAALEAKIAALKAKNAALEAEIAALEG

[56] = target: T55, 4H3922-AA; test: two-hybrid library CCmax; conditions: mean of both orientations
T55 chain: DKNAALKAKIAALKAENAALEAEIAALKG

[57] = target: T56, 4H4033-AA; test: two-hybrid library CCmax; conditions: mean of both orientations
T56 chain: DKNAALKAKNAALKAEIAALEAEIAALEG

[58] = target: T57, 4H481-AA; test: two-hybrid library CCmax; conditions: mean of both orientations
T57 chain: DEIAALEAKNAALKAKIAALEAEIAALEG

[59] = target: T58, 4H55-AA; test: two-hybrid library CCmax; conditions: mean of both orientations
T58 chain: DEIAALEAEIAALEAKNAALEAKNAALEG

[60] = target: T59, 4H662-AA; test: two-hybrid library CCmax; conditions: mean of both orientations
T59 chain: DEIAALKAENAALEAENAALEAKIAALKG

[61] = target: T60, Core_INII-es_KEEK; test: two-hybrid library CCmax; conditions: mean of both orientations
T60 chain: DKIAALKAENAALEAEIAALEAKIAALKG

Work on DEIQQLEEEIRQLEQKNSQLKEKNQQLKY [P3SC2] yielded an interaction score [1] of 1.12 and an interaction score [2] of 0.206.

Binder DENAQLEQENAELKQKIAELKWEIAQLEQ [4H1257-bA] has an interaction score [3] of -0.0608, an interaction score [4] of -0.55 and an interaction score [5] of -0.782. The interaction score [6] was -0.799, the interaction score [7] was -0.983 and the interaction score [8] was 0.908. The interaction score [9] was -0.882, the interaction score [10] was -0.847 and the interaction score [11] was -0.154. For the same binder, the interaction score [12] was -0.693, the interaction score [13] was -1.37 and the interaction score [14] was -0.712. For the same binder, the interaction score [15] was -0.884, the interaction score [16] was -1.24 and the interaction score [17] was -0.869. It also gave an interaction score [18] of 2.01, an interaction score [19] of -0.705 and an interaction score [20] of -0.102. The interaction score [21] was 1.77, the interaction score [22] was -1.75 and the interaction score [23] was -1.24. For the same binder, the interaction score [24] was -0.935, the interaction score [25] was -0.0683 and the interaction score [26] was -1.15. The interaction score [27] was -1.15, the interaction score [28] was -0.933 and the interaction score [29] was -1.18. It also gave an interaction score [30] of -1.38, an interaction score [31] of -0.431 and an interaction score [32] of -1.53. The interaction score [33] was -2.6, the interaction score [34] was -1.12 and the interaction score [35] was -1.33.

Work on DEIAALEAEIAALEAEIAALEAENAALEG [Core_IIIN-es_EEEE] yielded an interaction score [36] of 1.39.

DEIAALKAKNAALKAKNAALKAEIAALEG [4H1017-AA] showed an interaction score [37] of -1.79, an interaction score [38] of -2.19 and an interaction score [39] of -1.61. For the same binder, the interaction score [40] was 0.565, the interaction score [41] was -1.39 and the interaction score [42] was -1.79. It also gave an interaction score [43] of -1.35, an interaction score [44] of 1.64 and an interaction score [45] of -1.22. The interaction score [46] was -1.48, the interaction score [47] was -1.64 and the interaction score [48] was 0.0732. It also gave an interaction score [49] of 0.98, an interaction score [50] of -3.83 and an interaction score [51] of -1.46. The interaction score [52] was 0.203, the interaction score [53] was -1.94 and the interaction score [54] was -1.53. It also gave an interaction score [55] of -1.44, an interaction score [56] of -0.887 and an interaction score [57] of -2.3. The interaction score [58] was -1.63, the interaction score [59] was -1.6 and the interaction score [60] was 2.48.

Binder DEIAALEAKNAALKAKIAALKAEIAALEG [Core_INII-es_EKKE] has an interaction score [61] of 2.32.

— PMC10397247
